Experimental findings from patent US11370846B2, “Compositions and methods to regulate Renalase in the treatment of cancer” (Yale University, priority 2014, dated 2022) are described below.

“Also recorded” adds a separate entry of the source. Where two headings read alike, the source gives them in different places.

Data set [1] has as its system melanoma cells. In words: Melanoma cell lines in culture, viability/growth. The data set is classed as cell-based, human. How it is done:
(§1) FIG. 19A through FIG. 19D are a series of images and charts showing that inhibition of RNLS signaling is cytotoxic to melanoma cells in vitro. […] FIG. 19B comprises two charts depicting relative cell viability: Left panel: Cells were treated with indicated antibodies for 72 hrs and cell viability was determined using WST-1; m28-RNLS (also known as 1D-28-4), m37-RNLS (also known as 1D-37-10): monoclonal antibodies raised against RNLS peptide RP220; Right panel: A375.S2 cells treated with increasing doses of m28-RNLS for 72 hrs and cell viability determined with a WST-1 assay; n=6, * indicates p<0.05 and ** indicates p<0.005. FIG. 19C comprises representative photos of A375.S2, SkMe128, and SkMe15 after 72 hrs incubation with either control rabbit IgG or m28-RNLS. FIG. 19D is a chart depicting relative cell viability, comprising amino acid (AA) sequence of RNLS peptide antagonist (RP220A).
(§2) For additional studies, cell viability was determined using WST-1 reagent (Roche Diagnostics, Indianapolis, Ind., USA) according to the manufacturers' instruction. Absorbances were read using a microplate reader (Power Waves XS, BioTek Instruments, Winooski, Vt., USA).

Data set [2] has as its system A375.S2 melanoma cells. The data set is described as follows: Cell viability, WST-1, A375.S2 melanoma cells. It is filed as cell-based, human. The settings on record: A375.S2, 72 hrs. The procedure:
as §1, §2

The test system of data set [3] is p38 MAPK. In words: p38 MAPK phosphorylation in Panc1 cells by western blot. The data set is classed as cell-based, human. The settings on record: beginning at day 1 post treatment. How it is done: FIG. 26A through FIG. 26E are a series of images and charts showing that inhibition of RNLS signaling induces apoptosis and cell cycle arrest. […] FIG. 26B is a chart depicting FACS analysis of Panc1 cells in culture treated with either m28-RNLS (30 μg/ml) or 100 μM etoposide (positive control) for 4 days; n=3, * indicates p<0.05. FIG. 26C is an image showing Panc1 cells treated with polyclonal ab31291 or with goat IgG as a negative control, and cells lysates probed for p38 and Bax activation by western blot. […] FIG. 26E is a chart showing the effect of m28-RNLS on cell cycle of Panc1 cells determined by FACS analysis; green curve: no treatment, purple curve: rabbit IgG, red curve: m28-RNLS 30 μg/ml.

Data set [4] relates to A375.S2 xenograft tumors. It is filed as in vivo. The procedure:
Immunohistochemistry was performed as described previously (Guo et al., 2012 Cancer science. 103:1474-80). Briefly, tumor tissues were formalin-fixed, paraffin-embedded and cut into 5-μm sections on glass slides. The slides were de-paraffinized and hydrated, followed by antigen retrieval in a pressure cooker containing 10 mM sodium citrate, pH6 buffer. The sections were blocked in 3% hydrogen peroxide for 30 min and 2.5% normal horse serum in PBS/0.1% Tween20 for 1 h followed by incubation with primary antibody and isotype control IgG overnight at 4° C. The following antibodies were used in this study: m28-RNLS at 500 ng/ml; goat polyclonal anti-RNLS at 250 ng/ml (Abcam, ab31291); rabbit monoclonal anti-CD68 (BDBioscience, 1:100); rabbit monoclonal anti-CD163 (AbD Serotec, 1:100); rabbit monoclonal anti-CD86 (Abcam, 1:100); rabbit monoclonal anti-Ki67 (Vector Lab, VP-RM04, 1:100); rabbit monoclonal anti-p21, phspho-Tyr^705-Stat3, and total Stat3 (Cell Signaling Technologies, #2947, 1:100, #9145, 1:400, and #4904, 1:400, respectively). ImmPRESS peroxidase-anti-rabbit IgG (Vector Laboratories, Burlingame, Calif., USA) was used to detect primary antibodies. The color was developed using a Vector DAB substrate kit and counterstained with hematoxylin (Vector Laboratories). Slides were observed and photographed using an Olympus BX41 microscope and camera (Olympus America Inc, Center Valley, Pa., USA).
Female athymic, 18-20 g nude mice (nu/nu) were obtained from Charles River (Willimantic, Conn.) and housed in microisolator cages, with autoclaved bedding in a specific pathogen-free facility, with a 12-h light/dark cycle.
Xenograft tumors were established by subcutaneous injection of A375.S2 cells (2×10^6 in 100 μl of PBS, pH 7.6). When the tumors reached a volume of 50-100 mm^3, the mice were divided into a control group (n=14 treated with rabbit IgG, 40 μg by intraperitoneal injection (IP) once weekly, and 40 ug subcutaneously (SQ) around the tumor site every 3 days), and an experimental group (n=14) that received m28-RNLS (40 μg IP, once weekly, and 40 ug SQ, every 3 days). Tumor size was measured with digital calipers and volume was calculated according to the formula (length×width)×π/2.
At the end of the study, the mice were sacrificed, the tumors were excised and immediately snap-frozen in liquid nitrogen and stored at −80° C. Apoptosis was examined using the TUNEL assay (Roche in situ Apoptosis Detection System), according to the manufacturer's instructions. Sections were examined by light microscopy and the apoptosis index was determined by counting >1000 cells in 10 randomly selected high-power fields (×200 magnification).

Data set [5] deals with PDACC. The data set is described as follows: PDACC growth with anti-RNLS antibodies, WST-1. It is filed as cell-based, human. The settings on record: 72 hrs. The procedure: FIG. 25A through FIG. 25E are a series of charts and images showing that inhibition of RNLS signaling is cytotoxic to cancer cells in vitro and in vivo. FIG. 25A is a chart showing relative cell viability following transient transfection of Panc1 cells using a RNLS-specific siRNA, or a non-specific control siRNA, and cell viability assayed 96 h later using the WST-1 reagent; n=6, ** indicates p<0.001. FIG. 25B is a chart showing relative cell viability when cells were treated with indicated antibodies for 72 hrs and cell viability determined using WST-1; m28-RNLS and m37-RNLS: monoclonal antibodies raised against RNLS peptide RP220, ab31291: Abcam polyclonal antibody raised against a partial sequence of RP-220; n=6, * indicates p<0.005. […] FIG. 25D is a chart showing tumor volume increase after athymic nude mice received subcutaneous injection of Panc1 cells transduced with RNLS shRNA (sh-RNLS) or control (sh-Control); tumor volume measured every […] for up to 30 days, n=6 each; * indicates p<0.05. FIG. 25E is chart showing tumor volume increase after nude mice were xenografted with BxPC3; tumor volume measured prior to treatment every 3-4 days with 2 mg/kg of either rabbit IgG as a negative control or with m28-RNLS, n=10, * indicates p<0.05.

B1: 1D-28-4: rabbit anti-renalase monoclonal raised against peptide RP-220 (antigen 1D); heavy chain SEQ ID NO:9, light chain SEQ ID NO:10 (antibody)
heavy: METGLRWLLLVAVLKGVQCQSVEESGGRLVTPGTPLTLTCTVSGFSLSSFAVGWVRQAPGKGLEYIGIISSVGITRYASWAAGRFTISKTSTTVDLKITSPTTEDTATYFCARYGYSGDVNRLDLWGQGTLVTVSSGQPKAPSVFPLAPCCGDTPSSTVTLGCLVKGYLPEPVTVTWNSGTLTNGVRTFPSVRQSSGLYSLSSVVSVTSSSQPVTCNVAHPATNTKVDKTVAPSTCSKPTCPPPELLGGPSVFIFPPKPKDTLMISRTPEVTCVVVDVSQDDPEVQFTWYINNEQVRTARPPLREQQFNSTIRVVSTLPIAHQDWLRGKEFKCKVHNKALPAPIEKTISKARGQPLEPKVYTMGPPREELSSRSVSLTCMINGFYPSDISVEWEKNGKAEDNYKTTPAVLDSDGSYFLYSKLSVPTSEWQRGDVFTCSVMHEALHNHYTQKSISRSPGK
light: MDTRAPTQLLGLLLLWLPGATFAQVLTQTASPVSAAVGGTVTINCQASQSVYDNNNLAWYQQKPGQPPKQLIYGASTLASGVSSRFKGSGSGTQFTLTISGVQCDDAATYYCLGEFSCSSADCFAFGGGTEVVVKGDPVAPTVLIFPPSADLVATGTVTIVCVANKYFPDVTVTWEVDGTTQTTGIENSKTPQNSADCTYNLSSTLTLTSTQYNSHKEYTCKVTQGTTSVVQSFNRGDC
modifications: oryctolagus cuniculus
Turning to B1, the “melanoma cell growth/viability in culture” value in data set [1] is on record as “inhibits melanoma cells in culture”. Also, the “melanoma cell growth/viability in culture” value in data set [1] (listed as m28-RNLS) is “decreased the viability of all (total of 5) melanoma cell lines tested”. Moreover, in data set [2], the “cytotoxicity with increasing dose” value was “increasing levels of cytotoxicity in correlation with increasing treatment concentrations”. Also, the “phosphorylation of p38 MAPK” value in data set [3] was “sustained phosphorylation”. In addition, in data set [4] (IHC of xenografted tumors), the Ki67 positive cells is on record as 13.4±3.0 positive cells/high power field and the p21 positive cells was found to be 24.2±2.4 positive cells. Besides, in data set [4] (immunofluorescence of xenografts, listed as m28-RNLS), the “number of CD163+ TAMs” value is listed as “decreases CD163+TAMs”. In addition, the “total and phosphorylated STAT3 in tumors” value in data set [4] (immunofluorescence, listed as m28-RNLS) was “marked reduction; also recorded: dramatic reduction”. Moreover, the “ratio of CD86+ to CD163+ TAMs” value in data set [4] (mouse, in vivo) is “increases the ratio”. Moreover, in data set [4] (overall animal health and activity), the “toxicity of antibody treatment” value was “did not appear to be toxic”. For the same molecule, in data set [4] (qPCR, mouse specific primers), the “mouse RNLS expression in tumor mass” value was “significant reduction”. The “p-Y705-STAT3 and total STAT3 in tumors” value in data set [4] (western blot) is recorded as “significantly decreased”. Moreover, the PDACC growth entry in data set [5] is “inhibitory effects”.
